Data on one substance can be found in publication PMC9005348.

As a reminder, the stoichiometry N is the number of molecules, sites or subunits per partner or assembly.

The experiment has as its target rsGCaMP.LP294TR.ΔRSET (rsGCaMP1.1). The experiment can be described thus: crystal structure; crystals with domain-swapped dimers; for rsGCaMP1.1 the C2 space group, two molecules in the asymmetric unit; Ca2+-bound protein.

For the substance rsGCaMP.LP294TR.ΔRSET (rsGCaMP1.1), the stoichiometry N stood at 2.
